B1: "Na(+)/H(+) exchange regulatory cofactor NHE-RF1" (Homo sapiens), O14745 (parent)
chain: MSADAAAGAPLPRLCCLEKGPNGYGFHLHGEKGKLGQYIRLVEPGSPAEKAGLLAGDRLVEVNGENVEKETHQQVVSRIRAALNAVRLLVVDPETDEQLQKLGVQVREELLRAQEAPGQAEPPAAAEVQGAGNENEPREADKSHPEQRELRPRLCTMKKGPSGYGFNLHSDKSKPGQFIRSVDPDSPAEASGLRAQDRIVEVNGVCMEGKQHGDVVSAIRAGGDETKLLVVDRETDEFFKKCRVIPSQEHLNGPLPVPFTNGEIQKENSREALAEAALESPRPALVRSASSDTSEELNSQDSPPKQDSTAPSSTSSSDPILDFNISLAMAKERAHQKRSSKRAPQMDWSKKNELFSNL
partner: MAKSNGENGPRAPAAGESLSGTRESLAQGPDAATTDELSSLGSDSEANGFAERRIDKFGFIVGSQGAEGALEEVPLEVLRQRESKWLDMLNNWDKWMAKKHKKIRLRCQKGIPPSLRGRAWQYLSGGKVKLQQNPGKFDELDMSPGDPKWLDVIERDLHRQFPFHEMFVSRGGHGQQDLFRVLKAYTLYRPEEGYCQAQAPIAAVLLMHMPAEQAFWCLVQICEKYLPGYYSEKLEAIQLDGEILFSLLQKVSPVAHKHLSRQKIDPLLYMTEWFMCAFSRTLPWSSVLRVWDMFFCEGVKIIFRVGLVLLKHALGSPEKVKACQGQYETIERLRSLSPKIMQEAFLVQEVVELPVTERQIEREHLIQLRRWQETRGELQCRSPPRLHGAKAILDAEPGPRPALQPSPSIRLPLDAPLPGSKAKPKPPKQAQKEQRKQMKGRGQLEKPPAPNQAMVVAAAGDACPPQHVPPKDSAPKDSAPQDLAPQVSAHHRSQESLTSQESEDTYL

Variants of: B1
Details: with tb10a_human TBC1D10A

Effect of a mutation on the interaction, with no effect:
S162D;S339D;S340D
S280D;S302D
S280A;S302A
